Measured values reported in patent US20230204567A1 (Takeda / Millennium, published 2023).

Key:
[1] = molecular target: T1, inactivated DENV1 (West Pacific 74, Microbix) (Dengue virus serotype 1, UniProt P17763 281-775); assay: ELISA, antigen coated at 1 µg/mL, hybridoma supernatant, anti-rabbit IgG-HRP
T1 construct: also called dengue virus serotype 1

[2] = molecular target: T2, inactivated DENV3 (CH53489, Microbix) (Dengue virus serotype 3); assay: as above
T2 construct: also called dengue virus serotype 3

[3] = molecular target: T3, inactivated DENV2 (16681; Microbix) (Dengue virus serotype 2, UniProt P29990 281-775); assay: as above
T3 construct: also called dengue virus serotype 2

[4] = molecular target: T4, ZIKV E protein (Native Antigen) (Zika virus); assay: as above
T4 chain: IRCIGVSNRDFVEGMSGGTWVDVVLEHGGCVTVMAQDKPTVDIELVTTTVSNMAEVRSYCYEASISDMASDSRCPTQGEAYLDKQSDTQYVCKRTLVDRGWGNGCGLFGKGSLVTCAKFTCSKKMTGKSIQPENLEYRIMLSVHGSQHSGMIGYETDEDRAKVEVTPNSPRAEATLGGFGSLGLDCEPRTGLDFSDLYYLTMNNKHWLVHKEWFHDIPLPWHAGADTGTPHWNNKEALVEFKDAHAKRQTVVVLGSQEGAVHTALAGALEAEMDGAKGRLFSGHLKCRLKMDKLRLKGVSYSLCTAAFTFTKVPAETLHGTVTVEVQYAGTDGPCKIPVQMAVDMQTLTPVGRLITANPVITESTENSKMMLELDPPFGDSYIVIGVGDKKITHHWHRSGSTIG

[5] = molecular target: T5, inactivated DENV4 (TVP-360, Microbix) (Dengue virus serotype 4); assay: as above
T5 construct: also called dengue virus serotype 4

[6] = molecular target: T1, inactivated DENV1 (West Pacific 74, …); assay: ELISA, antigen coated at 1 µg/mL, hybridoma supernatant
[7] = molecular target: T3, inactivated DENV2 (16681; Microbix); assay: as above

T1 sequence (P17763 281-775 limits assumed): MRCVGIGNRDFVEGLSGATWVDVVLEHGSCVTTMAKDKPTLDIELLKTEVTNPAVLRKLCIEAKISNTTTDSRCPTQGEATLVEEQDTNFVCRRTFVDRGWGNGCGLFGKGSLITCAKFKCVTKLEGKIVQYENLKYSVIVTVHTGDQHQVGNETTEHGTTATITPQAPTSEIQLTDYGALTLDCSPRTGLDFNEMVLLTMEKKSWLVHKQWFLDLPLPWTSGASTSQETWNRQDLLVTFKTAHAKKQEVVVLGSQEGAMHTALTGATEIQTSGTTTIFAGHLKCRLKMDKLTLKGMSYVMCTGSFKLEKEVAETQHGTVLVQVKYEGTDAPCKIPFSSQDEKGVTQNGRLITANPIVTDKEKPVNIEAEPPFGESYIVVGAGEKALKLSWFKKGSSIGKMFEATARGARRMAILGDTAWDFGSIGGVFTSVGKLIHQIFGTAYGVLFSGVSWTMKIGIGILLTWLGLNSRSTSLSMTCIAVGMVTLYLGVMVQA

B1: Anti-ZIKV #2 (IgG, Clone 306-2) (antibody, V domains shown)
VH: QSLEESGGDLVKPGASLTLTCTASGFDFSDRYYMCWVRQAPGKGLEWIGCIYVGSGDTYYASWAKGRFTISRTSSTTVTLQMTRLTAADTATYFCARHPGTYFTLWGPGTLVTVSS
VL: DVVMTQTPSSVSAAVGGTVTINCQASQNIVNNLAWYQQRPGQPPKLLIYDTSTLASGVPSRFKGSGSGTEFTLTISDLECADAATYYCQTYYYYNKIINGFGGGTEVVVKG
notes: also called antibody 2; acceptor Ab of mAb pairs #1 to 3
- optical density (OD) [1]: 0.037 OD
- optical density (OD) [2]: 0.034 OD
- optical density (OD) [3]: 0.034 OD
- optical density (OD) [4]: 0.61 OD
- optical density (OD) [5]: 0.048 OD
- binding result [6]: no binding
- binding result [7]: no binding

B2: Anti-ZIKV #1 (IgG, Clone 242-3) (antibody, V domains shown)
VH: QAQLEESGGDLVKPEGSLTLTCTASGFSFTDRHYMCWIRQAPGKGLEWIACVYPGSSGSTYYASWARGRFTISKTSSTTVTLRMTSLTAADTATYFCARSSYPDSSGYSYGMDLWGPGTLVTVSS
VL: DIVMTQTPASVEAAVGGTVTIKCQASQNINSNLAWYQQKPGQRPKFLMYLTSKLASGVPSRFRGSGSGTQFTLTISDLECADAATYYCQTYYDISNYGYAFGGGTEVVVKG
notes: also called antibody 1; donor Ab of mAb pair #1
- optical density (OD) [1]: 0.04 OD
- optical density (OD) [2]: 0.04 OD
- optical density (OD) [3]: 0.034 OD
- optical density (OD) [4]: 0.33 OD
- optical density (OD) [5]: 0.038 OD
- binding result [6]: no binding
- binding result [7]: no binding
